Publication PMC11906611
Where two headings read alike, the source gives them in different places.

How the values were obtained:
[1] = target: FruR labelled with NT-647 (wild type, for MST) (Faecalibacterium prausnitzii A2-165); assay: MST
[2] = target: FruR labelled with NT-647 (wild type, for MST) (Faecalibacterium prausnitzii A2-165); assay: MST; remark: listed apart in the source

“HPr2, unlabeled (wild type, for MST) (natural protein)” showed a Kd [1] of 0.00107 µM and a Kd [2] of 0.448 µM.
